Data on 94 variants can be found in the supplement of paper PMC10567573.

To fix the notation:
B1: MIA2 (parent)
chain: NSISSDKEATVPCTEILTEKKDTI
B2: INTS3 (parent)
chain: YPPLEGHVRQGVFSSLNHIVEKRV
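Also: lentivirally expressed fusions sorted by FACS into six bins by GFP to DsRed ratio, PSI derived from sequencing read proportions per bin multiplied by bin number.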

The variants in the first data set derive from B1. Kind of data set: protein stability index of a GFP-peptide fusion (GPS, HEK-293T) (PSI 1-6); higher = more stable. Particulars: c terminus: a fixed tail appended.
Take NSISSDFEATVPCTEILTEKKDTI [K7F]: the protein stability index came out at 4.95. The same measure, in the same setting: the same measure for NSISSDTEATVPCTEILTEKKDTI [K7T]: 5.49. Take NSISSDCEATVPCTEILTEKKDTI [K7C]: the protein stability index was 5.31. As to NSISSDIEATVPCTEILTEKKDTI [K7I], the protein stability index is 5.27.

In the case of NSISSDGEATVPCTEILTEKKDTI [K7G], the protein stability index came to 5.8.

For the variant NSISSDSEATVPCTEILTEKKDTI [K7S], the protein stability index was 5.5. The same measure, in the same setting: the same measure for NSISSDREATVPCTEILTEKKDTI [K7R]: 5.07; for NSISSDHEATVPCTEILTEKKDTI [K7H]: 5.38. Still for that read-out and setting: the same measure for NSISSDPEATVPCTEILTEKKDTI [K7P]: 5.62. Same read-out and setting: the same measure for NSISSDWEATVPCTEILTEKKDTI [K7W]: 5.05. For NSISHDKEATVPCTEILTEKKDTI [S5H], the protein stability index was 5.47.

For the variant NSISFDKEATVPCTEILTEKKDTI [S5F], the protein stability index amounted to 4.94.

NSISEDKEATVPCTEILTEKKDTI [S5E]: the protein stability index amounted to 5.67. NSISLDKEATVPCTEILTEKKDTI [S5L]: the protein stability index was determined as 5.42. Still for that read-out and setting: for NSISYDKEATVPCTEILTEKKDTI [S5Y] the value was 5.23; for NSISQDKEATVPCTEILTEKKDTI [S5Q], 5.43; for NSISMDKEATVPCTEILTEKKDTI [S5M], 5.23.

As for NSISDDKEATVPCTEILTEKKDTI [S5D], the protein stability index was found to be 5.4.

As to NSISVDKEATVPCTEILTEKKDTI [S5V], the protein stability index turned out to be 5.46. On the same count and under the same terms, for NSISRDKEATVPCTEILTEKKDTI [S5R] the value was 4.71.

As for NSISNDKEATVPCTEILTEKKDTI [S5N], the protein stability index was determined as 5.69. Still for that read-out and setting: the same measure for NSISIDKEATVPCTEILTEKKDTI [S5I]: 5.17; for NSISTDKEATVPCTEILTEKKDTI [S5T]: 5.39. Same read-out and setting: for NSISGDKEATVPCTEILTEKKDTI [S5G] the value was 5.42; for NSISADKEATVPCTEILTEKKDTI [S5A], 5.33; for NSISWDKEATVPCTEILTEKKDTI [S5W], 5.17.

Take NSISPDKEATVPCTEILTEKKDTI [S5P]: the protein stability index was found to be 5.59.

Consider NSISCDKEATVPCTEILTEKKDTI [S5C], for which the protein stability index was 5.25. Turning to NSISKDKEATVPCTEILTEKKDTI [S5K], the protein stability index is 5.83. Consider NSISSHKEATVPCTEILTEKKDTI [D6H], for which the protein stability index was 4.89.

On to NSISSWKEATVPCTEILTEKKDTI [D6W], for which the protein stability index was determined as 4.62.

Consider NSISSPKEATVPCTEILTEKKDTI [D6P], for which the protein stability index was 5.35. Same read-out and setting: for NSISSFKEATVPCTEILTEKKDTI [D6F] the value was 4.84; for NSISSGKEATVPCTEILTEKKDTI [D6G], 5.28; for NSISSAKEATVPCTEILTEKKDTI [D6A], 5.45. Consider NSISSIKEATVPCTEILTEKKDTI [D6I], for which the protein stability index was 4.98. With NSISSEKEATVPCTEILTEKKDTI [D6E], the protein stability index turned out to be 5.63. The same measure, in the same setting: the same measure for NSISSTKEATVPCTEILTEKKDTI [D6T]: 5.31; for NSISSNKEATVPCTEILTEKKDTI [D6N]: 5.42; for NSISSRKEATVPCTEILTEKKDTI [D6R]: 4.9. As to NSISSSKEATVPCTEILTEKKDTI [D6S], the protein stability index is 5.71. On the same count and under the same terms, the same measure for NSISSLKEATVPCTEILTEKKDTI [D6L]: 5.06; for NSISSVKEATVPCTEILTEKKDTI [D6V]: 5.14; for NSISSCKEATVPCTEILTEKKDTI [D6C]: 4.52. Turning to NSISSQKEATVPCTEILTEKKDTI [D6Q], the protein stability index is 5.12. As for NSISSYKEATVPCTEILTEKKDTI [D6Y], the protein stability index came out at 4.71.

For the variant NSISSMKEATVPCTEILTEKKDTI [D6M], the protein stability index came to 5.

On to NSISSKKEATVPCTEILTEKKDTI [D6K], for which the protein stability index is 5.2. The same measure, in the same setting: for NSISSDKQATVPCTEILTEKKDTI [E8Q] the value was 5.52. On the same count and under the same terms, the same measure for NSISSDKDATVPCTEILTEKKDTI [E8D]: 5.5; for NSISSDKMATVPCTEILTEKKDTI [E8M]: 5.14. Still for that read-out and setting: for NSISSDKNATVPCTEILTEKKDTI [E8N] the value was 5.31; for NSISSDKVATVPCTEILTEKKDTI [E8V], 4.99; for NSISSDKLATVPCTEILTEKKDTI [E8L], 5.31. NSISSDKSATVPCTEILTEKKDTI [E8S]: the protein stability index stood at 5.46. With NSISSDKTATVPCTEILTEKKDTI [E8T], the protein stability index came to 5.17.

For NSISSDKPATVPCTEILTEKKDTI [E8P], the protein stability index was 5.27. On to NSISSDKCATVPCTEILTEKKDTI [E8C], for which the protein stability index came out at 5.27.

Take NSISSDKRATVPCTEILTEKKDTI [E8R]: the protein stability index was 5.74. On the same count and under the same terms, the same measure for NSISSDKAATVPCTEILTEKKDTI [E8A]: 5.07; for NSISSDKFATVPCTEILTEKKDTI [E8F]: 4.93.

Take NSISSDKWATVPCTEILTEKKDTI [E8W]: the protein stability index was found to be 4.73.

On to NSISSDKGATVPCTEILTEKKDTI [E8G], for which the protein stability index amounted to 5.37. Same read-out and setting: for NSISSDKHATVPCTEILTEKKDTI [E8H] the value was 4.91; for NSISSDKYATVPCTEILTEKKDTI [E8Y], 4.95. Same read-out and setting: for NSISSDKKATVPCTEILTEKKDTI [E8K] the value was 5.46; for NSISSDKIATVPCTEILTEKKDTI [E8I], 5.32.

In the next data set the parent is B2. The data set is described as above. Particulars: c terminus: a fixed tail appended.
As for YPPLEGHVRQGVFSSLNHGVEKRV [I19G], the protein stability index turned out to be 2.57. Still for that read-out and setting: for YPPLEGHVRQGVFSSLNHIVEKRN [V24N] the value was 2.83. In the case of YPPLEGHVRQGVFSSLNHIVKKRV [E21K], the protein stability index was found to be 2.26. Still for that read-out and setting: the same measure for YPPLEGHVMQGVFSSLNHIVEKRV [R9M]: 2.47; for YPPLEGHVCQGVFSSLNHIVEKRV [R9C]: 2.06. For YPPWEGHVRQGVFSSLNHIVEKRV [L4W], the protein stability index is 2.91.

As for YPPGEGHVRQGVFSSLNHIVEKRV [L4G], the protein stability index is 1.35. Same read-out and setting: the same measure for YPPVEGHVRQGVFSSLNHIVEKRV [L4V]: 3.04.

As to YPPLEGHVRQGVFSSLNHIVEKNV [R23N], the protein stability index is 2.6. As for YPPLEGHVRQGVFSSLNHIVEKWV [R23W], the protein stability index is 2.62. On the same count and under the same terms, for YQPLEGHVRQGVFSSLNHIVEKRV [P2Q] the value was 2.02. For the variant YKPLEGHVRQGVFSSLNHIVEKRV [P2K], the protein stability index worked out at 2.49. The same measure, in the same setting: for YPPLEGHVRQGVFSSLNVIVEKRV [H18V] the value was 1.36. For the variant YPPLEGHVRQGVFSSLQHIVEKRV [N17Q], the protein stability index was 2.34.

YPLLEGHVRQGVFSSLNHIVEKRV [P3L]: the protein stability index turned out to be 2.98. For YPPLEIHVRQGVFSSLNHIVEKRV [G6I], the protein stability index was found to be 1.76. On the same count and under the same terms, for YPPLEQHVRQGVFSSLNHIVEKRV [G6Q] the value was 2.74. YPPLEHHVRQGVFSSLNHIVEKRV [G6H]: the protein stability index is 2.98. Still for that read-out and setting: for YPPLEGHVRQGVFSGLNHIVEKRV [S15G] the value was 2.58. As to YPPLEGHVRQGVFSSLNHIEEKRV [V20E], the protein stability index is 3.08. For the variant YPPLEGHVRQGVFSSLNHIFEKRV [V20F], the protein stability index came out at 2.78.

Take YPPLEGHVRQGRFSSLNHIVEKRV [V12R]: the protein stability index was determined as 3.5.

Turning to FPPLEGHVRQGVFSSLNHIVEKRV [Y1F], the protein stability index was 2.88. With KPPLEGHVRQGVFSSLNHIVEKRV [Y1K], the protein stability index was determined as 4.07. Take YPPLEGHVRQGVESSLNHIVEKRV [F13E]: the protein stability index was found to be 3.99. Same read-out and setting: the same measure for YPPLEGHVRQEVFSSLNHIVEKRV [G11E]: 2.88. The same measure, in the same setting: the same measure for YPPLEGHVRQGVFSSFNHIVEKRV [L16F]: 2.14.
